T1: recombinant mouse IL-12 (R&D Systems Cat#419-ML-010/CF) (mouse, UniProt P43431 23-215; P43432 23-335)
T1 construct: coated at 0.5 µg/ml; also called mIL-12
T1 sequence (looked up) 1: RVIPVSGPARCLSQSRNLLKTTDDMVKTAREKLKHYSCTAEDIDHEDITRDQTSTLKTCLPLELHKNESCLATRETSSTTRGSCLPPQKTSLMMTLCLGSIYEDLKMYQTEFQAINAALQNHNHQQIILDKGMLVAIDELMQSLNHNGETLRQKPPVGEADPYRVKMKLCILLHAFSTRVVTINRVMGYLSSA
T1 sequence (looked up) 2: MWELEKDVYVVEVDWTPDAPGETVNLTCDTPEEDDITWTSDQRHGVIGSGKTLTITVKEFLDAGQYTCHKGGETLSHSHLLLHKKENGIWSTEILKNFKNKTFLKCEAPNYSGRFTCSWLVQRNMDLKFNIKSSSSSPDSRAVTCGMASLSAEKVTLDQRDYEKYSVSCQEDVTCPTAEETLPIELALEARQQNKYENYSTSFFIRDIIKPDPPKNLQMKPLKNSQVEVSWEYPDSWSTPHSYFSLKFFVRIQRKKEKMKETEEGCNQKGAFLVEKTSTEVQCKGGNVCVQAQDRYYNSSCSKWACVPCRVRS

T2: recombinant human IL-3 (R&D Systems Cat#203-IL/CF) (human, UniProt P08700 20-152)
T2 construct: also called huIL-3
T2 sequence (looked up): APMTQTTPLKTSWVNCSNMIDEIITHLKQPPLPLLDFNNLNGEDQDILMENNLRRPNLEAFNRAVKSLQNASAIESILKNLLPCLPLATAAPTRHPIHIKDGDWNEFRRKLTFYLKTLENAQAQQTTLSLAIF

T3: recombinant mouse IL-17F (R&D Systems Cat#2057-IL/CF) (mouse, UniProt Q7TNI7 29-161)
T3 construct: also called mIL-17F
T3 sequence (looked up): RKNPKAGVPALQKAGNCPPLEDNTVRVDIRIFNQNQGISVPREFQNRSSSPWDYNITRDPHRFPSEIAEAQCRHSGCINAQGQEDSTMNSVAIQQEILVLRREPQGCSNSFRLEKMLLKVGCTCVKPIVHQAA

T4: recombinant rat IL-17A (SEQ ID NO: 85) (rat, UniProt Q61453 18-150)
T4 construct: also called rratIL-17A; rIL-17A
T4 sequence: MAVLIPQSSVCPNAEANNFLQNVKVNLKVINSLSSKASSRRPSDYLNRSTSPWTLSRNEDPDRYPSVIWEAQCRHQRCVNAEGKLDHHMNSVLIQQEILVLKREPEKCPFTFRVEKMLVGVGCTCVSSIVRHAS

T5: recombinant human IL-17F (SEQ ID NO: 77) (human, UniProt Q96PD4 31-163)
T5 construct: homodimer; also called huIL-17F; rhuIL-17F
T5 sequence: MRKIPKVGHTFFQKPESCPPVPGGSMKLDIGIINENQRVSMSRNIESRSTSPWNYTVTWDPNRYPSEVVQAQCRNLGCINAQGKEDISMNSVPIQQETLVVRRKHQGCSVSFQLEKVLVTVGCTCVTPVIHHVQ

T6: recombinant cynomolgus IL-17A (SEQ ID NO: 79) (cynomolgus monkey, UniProt Q16552 24-155 (human entry), limits assumed)
T6 construct: also called cynoIL-17A; cyno IL-17A
T6 chain: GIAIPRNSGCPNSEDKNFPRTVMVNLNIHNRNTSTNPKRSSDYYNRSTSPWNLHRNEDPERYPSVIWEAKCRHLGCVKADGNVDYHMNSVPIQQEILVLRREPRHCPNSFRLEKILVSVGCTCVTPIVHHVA

T7: recombinant cynomolgus IL-17F (SEQ ID NO: 80) (cynomolgus monkey, UniProt Q96PD4 31-163 (human entry), limits assumed)
T7 construct: also called cynoIL-17F; cyno IL-17F
T7 chain: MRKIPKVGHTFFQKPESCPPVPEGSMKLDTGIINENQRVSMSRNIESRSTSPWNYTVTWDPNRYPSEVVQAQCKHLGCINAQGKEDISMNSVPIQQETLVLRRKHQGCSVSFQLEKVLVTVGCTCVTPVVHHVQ

T8: recombinant human IL-23 (R&D Systems Cat#1290-IL-010/CF) (human, UniProt Q9NPF7 20-189; P29460 23-328)
T8 construct: also called huIL-23
T8 sequence (looked up) 1: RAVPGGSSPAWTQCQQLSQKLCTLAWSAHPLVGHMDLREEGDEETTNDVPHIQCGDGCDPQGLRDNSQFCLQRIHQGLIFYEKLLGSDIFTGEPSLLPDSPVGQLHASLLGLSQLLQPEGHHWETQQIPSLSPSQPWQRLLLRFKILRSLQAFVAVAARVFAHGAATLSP
T8 sequence (looked up) 2: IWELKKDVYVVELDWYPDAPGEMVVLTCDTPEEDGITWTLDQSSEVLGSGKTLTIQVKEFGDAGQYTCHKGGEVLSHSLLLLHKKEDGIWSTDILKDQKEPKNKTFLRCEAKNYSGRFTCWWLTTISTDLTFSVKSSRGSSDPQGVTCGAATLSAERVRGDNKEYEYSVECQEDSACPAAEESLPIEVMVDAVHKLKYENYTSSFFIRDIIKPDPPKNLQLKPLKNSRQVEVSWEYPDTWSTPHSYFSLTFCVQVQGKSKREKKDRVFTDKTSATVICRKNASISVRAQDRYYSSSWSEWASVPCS


How the values were obtained:
[1] = biological target: T1, recombinant mouse IL-12 (R&D Systems …); experiment: ELISA, coated cytokine;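 also: antibodies incubated 3 h at room temperature on cytokine-coated plates, binding read out with alkaline phosphatase-conjugated anti-species IgG secondary antibodies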
Method: (§1) The antibodies of the disclosure were added at 10 μg/ml (100 μl/well) for 3 h at room temperature. […] They were added at 1 or 5 μg/ml, in PBS, 0.02% NaN₃ for 3 h at RT.
(§2) Plates were then washed 4 times with PBS/0.05% Tween 20/0.02% NaN₃. Then, an alkaline phosphatase-conjugated goat anti-human IgG antibody (Sigma Cat# A9544) was added to the wells with human antibodies at a dilution of 1/20000 (100 μl/well). An alkaline phosphatase-conjugated goat anti-mouse IgG antibody (Sigma Cat# A1047) was added to the wells with mouse antibodies at a dilution of 1/10000 (100 μl/well). An alkaline phosphatase-conjugated rabbit anti-goat IgG antibody (Sigma Cat# A7650) was added to the wells with goat antibodies at a dilution of 1/1000 (100 μl/well) and an alkaline phosphatase-conjugated rabbit anti rat-IgG antibody (Sigma Cat# A6066) was added to the wells with rat antibodies at a dilution of 1/20000 (100 μl/well).

[2] = biological target: T9, recombinant human IL-1β (Novartis) (human, UniProt P01584 117-269); experiment: ELISA, coated cytokine;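 also: antibodies incubated 3 h at room temperature on cytokine-coated plates, binding read out with alkaline phosphatase-conjugated anti-species IgG secondary antibodies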
T9 construct: also called huIL1β
Method: as §1, §2

[3] = biological target: T2, recombinant human IL-3 (R&D Systems …); experiment: ELISA, coated cytokine;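 also: antibodies incubated 3 h at room temperature on cytokine-coated plates, binding read out with alkaline phosphatase-conjugated anti-species IgG secondary antibodies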
Method: as §1, §2

[4] = biological target: T3, recombinant mouse IL-17F (R&D Systems …); experiment: ELISA, coated cytokine;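 also: antibodies incubated 3 h at room temperature on cytokine-coated plates, binding read out with alkaline phosphatase-conjugated anti-species IgG secondary antibodies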
Method: as §1, §2

[5] = biological target: T4, recombinant rat IL-17A (SEQ ID NO: 85); experiment: ELISA, coated antigen, Ab 1 µg/ml
Method: (§3) A titration of the antibodies of interest on different antigens was carried out.
(§4) Plates were then washed 4 times with PBS/0.05% Tween 20 (Sigma Cat# P7949)/0.02% NaN₃.
(§5) Plates were then washed 4 times with PBS/0.05% Tween 20/0.02% NaN₃. Then, an alkaline phosphatase-conjugated goat anti-human IgG antibody (Sigma Cat# A9544) was added to the wells that received test antibody at a dilution of 1/20000 (100 μl/well) for 2 h 30 min at RT. To the wells, that received mouse mAb, an alkaline phosphatase-conjugated goat anti-mouse IgG antibody (Sigma Cat# A7434) was added at a dilution of 1/10000 (100 μl/well) for 2 h 30 min at RT. An alkaline phosphatase conjugated mouse anti goat IgG antibody (Sigma Cat# A8062) was added to the goat antibodies at a dilution of 1/50000 (100 μl/well) for 2 h 30 min at RT. Plates were then washed 4 times and 100 μl of the substrate (p-nitrophenyl phosphate tablets; Sigma; 5 mg Cat#N9389; 20 mg Cat#. N2765) dissolved in diethanolamine buffer pH 9.8, to give a final concentration of 1 mg/ml, were added to each well.

[6] = biological target: T5, recombinant human IL-17F (SEQ ID NO: 77); experiment: ELISA, coated antigen, Ab 1 µg/ml
Method: as §3, §4, §5

[7] = biological target: T6, recombinant cynomolgus IL-17A (SEQ ID …); experiment: ELISA, coated antigen, Ab 1 µg/ml
Method: as §3, §4, §5

[8] = biological target: T7, recombinant cynomolgus IL-17F (SEQ ID …); experiment: ELISA, coated antigen, Ab 1 µg/ml
Method: as §3, §4, §5

[9] = biological target: T5, recombinant human IL-17F (SEQ ID NO: 77); experiment: ELISA, coated antigen
Method: as §3, §4, §5

[10] = biological target: T7, recombinant cynomolgus IL-17F (SEQ ID …); experiment: ELISA, coated antigen
Method: as §3, §4, §5

[11] = biological target: T8, recombinant human IL-23 (R&D Systems …); experiment: ELISA, coated cytokine
Method: as §1, §2

Binder | binding result [1] | binding result [2] | binding result [3] | binding result [4] | O.D. [5] [O.D.] | O.D. [6] [O.D.] | O.D. [7] [O.D.] | O.D. [8] [O.D.] | binding result [9] | binding result [10] | binding result [11]
XAB4 (antibody, human IgG1, kappa, V domains shown, also called MB435 N56Q) VH: EVQLVESGGDLVQPGGSLRLSCAASGFTFSSYWMSWVRQAPGKGLEWVANIKQDGSEKYYVDSVKGRFTISRDNAKNSLYLQMNSLRAEDTAVYYCARDRGSLYYWGQGTLVTVSS VL: AIQLTQSPSSLSASVGDRVTITCRPSQGINWELAWYQQKPGKAPKLLIYDASSLEQGVPSRFSGSGSGTDFTLTISSLQPEDFATYYCQQFNSYPLTFGGGTKVEIKR | no binding (tested: 10 µg/ml) | no binding (tested: 10 µg/ml) | no binding (tested: 10 µg/ml) | no binding (tested: 10 µg/ml) | 1.77 | 0.049 | 1.93 | 0.085 | no binding (tested: 1 µg/ml) | no binding (tested: 1 µg/ml) | 
XAB1 (antibody, human IgG1, kappa, V domains shown, human IgG1/kappa monoclonal antibody; also called parental XAB1; XAB1 IgG) VH: EVQLVESGGDLVQPGGSLRLSCAASGFTFSSYWMSWVRQAPGKGLEWVANIKQDGSEKYYVDSVKGRFTISRDNAKNSLYLQMNSLRAEDTAVYYCARDRGSLYYWGQGTLVTVSS VL: AIQLTQSPSSLSASVGDRVTITCRPSQGIISALAWYQQKPGKAPKLLIYDASSLENGVPSRFSGSGSGTDFTLTISSLQPEDFATYYCQQFNSYPLTFGGGTKVEIKR |  |  |  |  |  |  |  |  |  |  | no binding (tested: 10 µg/ml)
